Experimental findings from the RNAGym collection of RNA variant scans (doi:10.7554/elife.80360) are described below.

Sequences and labels used below:
B1: CPEB3 Ribozyme (parent)
chain: GGGGGCCACAGCAGAAGCGUUCACGUCGCGGCCCCUGUCAGAUUCUGGUGAAUCUGCGAAUUCUGCUGU

In this data set the parent is B1. Kind of data set: self-cleavage, relative activity (ratio to wild type); higher = more cleavage; co-transcriptional.
Take GGGGGCCACAGCAGAAGCCUUCACGUCGCGGCCCCUUUCAGAUUCUGGUGAAUCUGCGAAUUCUGCUGU: the self-cleavage is 0.143. Next, GGGGGCCACAGCAGAAGCCUUCACGUCGCGGCCCCUCUCAGAUUCUGGUGAAUCUGCGAAUUCUGCUGU: 0.183; GGGGGCCACAGCAGAAGCCUUCACGUCGCGGCCCCUAUCAGAUUCUGGUGAAUCUGCGAAUUCUGCUGU: 0.225; GGGGGCCACAGCAGAAGCCUUCACGUCUCGGCCCCUGUCAGAUUCUGGUGAAUCUGCGAAUUCUGCUGU: 0.142.

Regarding GGGGGCCACAGCAGAAGCCUUCACGUCCCGGCCCCUGUCAGAUUCUGGUGAAUCUGCGAAUUCUGCUGU, the self-cleavage amounted to 0.131. Next, GGGGGCCACAGCAGAAGCCUUCACGUCACGGCCCCUGUCAGAUUCUGGUGAAUCUGCGAAUUCUGCUGU: 0.147. On to GGGGGCCACAGCAGAAGCCUUCACCUCGCGGCCCCUGUCAGAUUCUGGUGAAUCUGCGAAUUCUGCUGU, for which the self-cleavage came out at 0.141. The figure for GGGGGCCACAGCAGAAGCCUUCACGUCGCGGCCCCUGUCAGAAUCUGGUGAAUCUGCGAAUUCUGCUGU is 0.127; for GGGGGCCACAGCAGAAGCCUUCACGUCGCGGCCCCUGUCAGAUUCUGGUGAAUCUCCGAAUUCUGCUGU it is 0.169.

Consider GGGGGCCACAGCAGAAGCCUUCACGUCGCGGCCCCUGUCAGAUUCUGGUGAAUCUACGAAUUCUGCUGU, for which the self-cleavage was found to be 0.16.

For GGGGGCCACAGCAGAAGCCCUCACGUCGCGGCCCCUGUCAGAUUCUGGUGAAUCUGCGAAUUCUGCUGU, the self-cleavage worked out at 0.19. The figure for GGGGGCCACAGCAGAAGCCAUCACGUCGCGGCCCCUGUCAGAUUCUGGUGAAUCUGCGAAUUCUGCUGU is 0.109; for GGGGGCCACAGCAGAAGCCGUCACGUCGCGGCCCCUGUCAGAUUCUGGUGAAUCUGCGAAUUCUGCUGU it is 0.126; for GGGGGCCACAGCAGAAGCCUUCACGUCGCGGCUCCUGUCAGAUUCUGGUGAAUCUGCGAAUUCUGCUGU it is 0.181. Turning to GGGGGCCACAGCAGAAGCCUUCACGUCGCGGCGCCUGUCAGAUUCUGGUGAAUCUGCGAAUUCUGCUGU, the self-cleavage was found to be 0.142. For the variant GGGGGCCACAGCAGAAGCCUUCACGUCGCGGCCUCUGUCAGAUUCUGGUGAAUCUGCGAAUUCUGCUGU, the self-cleavage is 0.209. In the case of GGGGGCCACAGCAGAAGCCUUCACGUCGCGGCCGCUGUCAGAUUCUGGUGAAUCUGCGAAUUCUGCUGU, the self-cleavage was 0.115.

In the case of GGGGGCCACAGCAGAAGCCUUCACGUCGCGGCCACUGUCAGAUUCUGGUGAAUCUGCGAAUUCUGCUGU, the self-cleavage amounted to 0.196. The figure for GGGGGCCACAGCAGAAGCCUUCACGUCGCGGCCCCUGUCAGAUUCAGGUGAAUCUGCGAAUUCUGCUGU is 0.177; for GGGGGCCACAGCAGAAGCCUUCACGUCGCGGCCCCUGUCAGAUUCCGGUGAAUCUGCGAAUUCUGCUGU it is 0.159; for GGGGGCCACAGCAGAAGCCUUCACGUCGCGGCCCCUGUCAGAUUCUGGUGAAUGUGCGAAUUCUGCUGU it is 0.163. Next, GGGGGCCACAGCAGAAGCCUUCACGUCGCGGCCCCUGUCAGAUUCUGGUGAAUAUGCGAAUUCUGCUGU: 0.158. As to GGGGGCCACAGCAGAAGCCUUCACGUCGCGGCCCCUGUCAGAUUCUGGUGAAUUUGCGAAUUCUGCUGU, the self-cleavage was 0.113.

In the case of GGGGGCCACAGCAGAAGCCUUCACGUCGCGGCCCCUGUCAGAUUCUGGUGAGUCUGCGAAUUCUGCUGU, the self-cleavage is 0.134. Regarding GGGGGCCACAGCAGAAGCCUUCACGUCGCGGCCCCUGUCAGAUUCUGGUGAUUCUGCGAAUUCUGCUGU, the self-cleavage was 0.189. Consider GGGGGCCACAGCAGAAGCCUUCACGUCGCGGCCCCUGUCAGAUUCUGGUGACUCUGCGAAUUCUGCUGU, for which the self-cleavage is 0.195. The figure for GGGGGCCACAGCAGAAGCCUUCACGUCGCGGCCCCUGUCAGAUUCUGGUGAAUCUGCGAAUUCUCCUGU is 0.12; for GGGGGCCACAGCAGAAGCCUUCACGUCGCGGCCCCUGUCAGAUUCUGGUGAAUCUGCGAAUUCUUCUGU it is 0.133; for GGGGGCCACAGCAGAAGCCUUCACGUCGCGGCCCCUGUCAGAUUCUGGUGAAUCUGCGAAUUCUACUGU it is 0.127. GGGGGCCACAGCAGAAGCCUUCACGUCGCGGCCCCUGUCAGAUUCUGGUGAAUCUGAGAAUUCUGCUGU: the self-cleavage came out at 0.158. As for GGGGGCCACAGCAGAAGCCUUCACGUCGCGGCCCCUGUCAGAUUCUGGUGAAUCUGGGAAUUCUGCUGU, the self-cleavage is 0.132. Next, GGGGGCCACAGCAGAAGCCUUCACGUCGCGGCCCCUGUCAGAUUCUGGUGAAUCUGCGAAUUCUGAUGU: 0.114.

As for GGGGGCCACAGCAGAAGCCUUCACGUCGCGGCCCCUGUCAGAUUCUGGUGAAUCUGCGAAUUCUGGUGU, the self-cleavage was 0.172. Next, GGGGGCCACAGCAGAAGCCUUCACGUCGCGGCCCCUGUCAGAUUCUGGUGAAUCUGCGAAUUCUGUUGU: 0.105.

Turning to GGGGGCCACAGCAGAAGCCUUCACGUCGCGGCCCCUGUCAGAUUCUGGUGAAUCUGCGGAUUCUGCUGU, the self-cleavage was 0.175. GGGGGCCACAGCAGAAGCCUUCACGUCGCCGCCCCUGUCAGAUUCUGGUGAAUCUGCGAAUUCUGCUGU: the self-cleavage was determined as 0.129. On to GGGGGCCACAGCAGAAGCCUUCACGUCGCAGCCCCUGUCAGAUUCUGGUGAAUCUGCGAAUUCUGCUGU, for which the self-cleavage amounted to 0.159. As to GGGGGCCACAGCAGAAGCCUUCACGUCGCGGCCCCUGUAAGAUUCUGGUGAAUCUGCGAAUUCUGCUGU, the self-cleavage was found to be 0.155.

As to GGGGGCCACAGCAGAAGCCUUCACGUCGCGGCCCCUGUCAGAUUCUGGUGAAUCUGCCAAUUCUGCUGU, the self-cleavage stood at 0.12. As for GGGGGCCACAGCAGAAGCCUUCACGUCGCGGCCCCUGUCAGAUUCUGGUGAAUCUGCUAAUUCUGCUGU, the self-cleavage came to 0.19. GGGGGCCACAGCAGAAGCCUUCACGUCGCGGCCCCUGUCAGAUUCUGGUGAAUCUGCGACUUCUGCUGU: the self-cleavage worked out at 0.15. For the variant GGGGGCCACAGCAGAAGCCUUCACGUCGCGGCCCCUGGCAGAUUCUGGUGAAUCUGCGAAUUCUGCUGU, the self-cleavage stood at 0.185. The figure for GGGGGCCACAGCAGAAGCCUUCACGUCGAGGCCCCUGUCAGAUUCUGGUGAAUCUGCGAAUUCUGCUGU is 0.164. In the case of GGGGGCCACAGCAGAAGCCUUCACGUCGGGGCCCCUGUCAGAUUCUGGUGAAUCUGCGAAUUCUGCUGU, the self-cleavage came out at 0.1.

GGGGGCCACAGCAGAAGCCUUCACGACGCGGCCCCUGUCAGAUUCUGGUGAAUCUGCGAAUUCUGCUGU: the self-cleavage turned out to be 0.13. Consider GGGGGCCACAGCAGAAGCCUUCACGGCGCGGCCCCUGUCAGAUUCUGGUGAAUCUGCGAAUUCUGCUGU, for which the self-cleavage stood at 0.109. Regarding GGGGGCCACAGCAGAAGCCUUCACGCCGCGGCCCCUGUCAGAUUCUGGUGAAUCUGCGAAUUCUGCUGU, the self-cleavage was 0.153. With GGGGGCCACAGCAGAAGCCUUAACGUCGCGGCCCCUGUCAGAUUCUGGUGAAUCUGCGAAUUCUGCUGU, the self-cleavage was determined as 0.0962. For GGGGGCCACAGCAGAAGCCUUGACGUCGCGGCCCCUGUCAGAUUCUGGUGAAUCUGCGAAUUCUGCUGU, the self-cleavage turned out to be 0.156. Take GGGGGCCACAGCAGAAGCCUUCACGUCGCGGCCCCUGUCAGAUUCUGGUGCAUCUGCGAAUUCUGCUGU: the self-cleavage was determined as 0.122.

With GGGGGCCACAGCAGAAGCCUUCACGUCGCGGCCCCUGUCAGAUUCUUGUGAAUCUGCGAAUUCUGCUGU, the self-cleavage is 0.152.

For GGGGGCCACAGCAGAAGCCUUCACGUCGCGGCCCCUGUCAGAUUCUCGUGAAUCUGCGAAUUCUGCUGU, the self-cleavage was found to be 0.147. On to GGGGGCCACAGCAGAAGCCUCCACGUCGCGGCCCCUGUCAGAUUCUGGUGAAUCUGCGAAUUCUGCUGU, for which the self-cleavage was determined as 0.142. The figure for GGGGGCCACAGCAGAAGCCUACACGUCGCGGCCCCUGUCAGAUUCUGGUGAAUCUGCGAAUUCUGCUGU is 0.109; for GGGGGCCACAGCAGAAGCCUUCACGUCGCGGCCCCUGUCAGAUUCUGGUUAAUCUGCGAAUUCUGCUGU it is 0.186; for GGGGGCCACAGCAGAAGCCUUCACGUCGCGGCCCCUGUCAGAUUCUGGUAAAUCUGCGAAUUCUGCUGU it is 0.147.

GGGGGCCACAGCAGAAGCCUUCACGUGGCGGCCCCUGUCAGAUUCUGGUGAAUCUGCGAAUUCUGCUGU: the self-cleavage amounted to 0.961. In the case of GGGGGCCACAGCAGAAGCCUUCACGUUGCGGCCCCUGUCAGAUUCUGGUGAAUCUGCGAAUUCUGCUGU, the self-cleavage worked out at 0.116. On to GGGGGCCACAGCAGAAGCCUUCACGUCGCGGCCCCGGUCAGAUUCUGGUGAAUCUGCGAAUUCUGCUGU, for which the self-cleavage came to 0.141. As for GGGGGCCACAGCAGAAGCCUUCACGUCGCGGCCCCAGUCAGAUUCUGGUGAAUCUGCGAAUUCUGCUGU, the self-cleavage is 0.188. As to GGGGGCCACAGCAGAAGCCUUCACGUCGCGGCCCCCGUCAGAUUCUGGUGAAUCUGCGAAUUCUGCUGU, the self-cleavage amounted to 0.0775.

Consider GGGGGCCACAGCAGAAGCCUUCACGUCGCGCCCCCUGUCAGAUUCUGGUGAAUCUGCGAAUUCUGCUGU, for which the self-cleavage came to 0.153. Consider GGGGGCCACAGCAGAAGCCUUCACGUCGCGUCCCCUGUCAGAUUCUGGUGAAUCUGCGAAUUCUGCUGU, for which the self-cleavage came out at 0.217. For GGGGGCCACAGCAGAAGCCUUCACGUCGCGACCCCUGUCAGAUUCUGGUGAAUCUGCGAAUUCUGCUGU, the self-cleavage is 0.132. For the variant GGGGGCCACAGCAGAAGCCUUCACGUCGCGGCCCCUGUCAGAUUCUGGUGAAUCUGCGAAUUCUGCUAU, the self-cleavage was found to be 0.201.

On to GGGGGCCACAGCAGAAGCCUUCACGUCGCGGCCCCUGUCAGAUUCUGGUGAAUCUGCGAAUUCUGCUUU, for which the self-cleavage is 0.13.

As to GGGGGCCACAGCAGAAGCCUUCACGUCGCGGCCCCUGUCAGAUUCUGGUGAAUCUGCGAAUUCUGCUCU, the self-cleavage stood at 0.187. As to GGGGGCCACAGCAGAAGCCUUCACGUCGCGGCCCCUGUCAAAUUCUGGUGAAUCUGCGAAUUCUGCUGU, the self-cleavage is 0.142. Next, GGGGGCCACAGCAGAAGCCUUCACGUCGCGGCCCCUGUCACAUUCUGGUGAAUCUGCGAAUUCUGCUGU: 0.17. Turning to GGGGGCCACAGCAGAAGCCUUCACGUCGCGGCCCCUGUCAGAUGCUGGUGAAUCUGCGAAUUCUGCUGU, the self-cleavage is 0.164. For the variant GGGGGCCACAGCAGAAGCCUUCACGUCGCGGCCCCUGUCAGAUACUGGUGAAUCUGCGAAUUCUGCUGU, the self-cleavage was determined as 0.185.

Regarding GGGGGCCACAGCAGAAGCCUUCACGUCGCGGCCCCUGUCAGAUUAUGGUGAAUCUGCGAAUUCUGCUGU, the self-cleavage worked out at 0.178. As to GGGGGCCACAGCAGAAGCCUUCACGUCGCGGCCCCUGUCAGAUUUUGGUGAAUCUGCGAAUUCUGCUGU, the self-cleavage amounted to 0.154.

For the variant GGGGGCCACAGCAGAAGCCUUCACGUCGCGGCCCCUGUCAGAUUGUGGUGAAUCUGCGAAUUCUGCUGU, the self-cleavage is 0.119. For the variant GGGGGCCACAGCAGAAGCCUUCACGUCGCGGCCCAUGUCAGAUUCUGGUGAAUCUGCGAAUUCUGCUGU, the self-cleavage is 0.154. For GGGGGCCACAGCAGAAGCCUUCACGUCGCGGCCCGUGUCAGAUUCUGGUGAAUCUGCGAAUUCUGCUGU, the self-cleavage was found to be 0.149. Next, GGGGGCCACAGCAGAAGCCUUCACGUCGCGGACCCUGUCAGAUUCUGGUGAAUCUGCGAAUUCUGCUGU: 0.146. The figure for GGGGGCCACAGCAGAAGCCUUCACGUCGCGGUCCCUGUCAGAUUCUGGUGAAUCUGCGAAUUCUGCUGU is 0.198.
